Assay [1] addresses T1, S100B.
T1 chain: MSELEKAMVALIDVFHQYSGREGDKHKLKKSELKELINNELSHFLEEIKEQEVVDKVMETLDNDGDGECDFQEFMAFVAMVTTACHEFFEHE
The assay is described as follows: fluorescence anisotropy; 5 nM fluorescein labeled peptide titrated with S100B in 50 mM Tris-HCl pH 7.5, 50 mM NaCl, 10 mM CaCl2, 25 C. (Polarisation of emitted light reports the rotation of a fluorescent probe.)

Assay [2] addresses T1, S100B. Put plainly: fluorescence anisotropy, N-terminal fluorescein labeled peptide.

Where no end group is shown, it is not given here. [ ]: non-standard residue; d: D form. fluorescein = N-terminal 5(6)-carboxyfluorescein label; Aib = CC(C)(N)C(=O)O; Ahx = NCCCCCC(=O)O

The text below walks through data of US20140155331A1 (COUNCIL OF SCIENTIFIC AND INDUSTRIAL RESEARCH, published 2014).

B1: pBBD-TRTK (branched dimeric Aib substituted TRTK) (peptide)
peptide: TRTKIDW[Aib]KIL[Aib]KAH[Ahx]
chain: Lys-NH2
modifications: also: branched dimer: two identical arms on one branching Lys (chain 2)
notes: This is a branched peptide with two identical arms on one lysine; also called bivalent helically branched peptide
In the assay with S100B [1], B1 displayed a Kd of 7.7 nM.

B2: pBM-TRTK (Aib substituted TRTK monomer peptide) (peptide)
peptide: fluorescein-TRTKIDW[Aib]KIL[Aib]GGGCG-NH2
notes: The peptide is derived from TRTK-12 (CapZ residues 265-276) with Aib at N8 and S12; also called pBM-TRK
In the case of B2, in the assay with S100B [2], the Kd is around 300 nM.

Usually Kd stands for the constant that tells how readily two partners part at equilibrium.
